Measured values as given in patent US20200230201A1 (CITY OF HOPE, published 2020).
Changes are numbered by the printed parent chain. In names and notes the source's numbering stands.

B1: TWIST1 (wild type, Myc-His tagged) (other, not shown: small tags and cut ends)
chain: MMQDVSSSPVSPADDSLSNSEEEPDRQQPPSGKRGGRKRRSSRRSAGGGAGPGGAAGGGVGGGDEPGSPAQGKRGKKSAGCGGGGGAGGGGGSSSGGGSPQSYEELQTQRVMANVRERQRTQSLNEAFAALRKIIPTLPSDKLSKIQTLKLAARYIDFLYQVLQSDELDSKMASCSYVAHERLSYAFSVWRMEGAWSMSASH
B2: TWIST1 E193A (other, not shown: small tags and cut ends)
chain: B1 chain with E193A
B3: TWIST1 R191A (other, not shown: small tags and cut ends)
chain: B1 chain with R191A
B4: TWIST1 W190A (other, not shown: small tags and cut ends)
chain: B1 chain with W190A

Target: RELA (wild type) (UniProt Q04206 1-551)
Experiment: cell-based or functional assay

Chain of RELA (wild type) (Q04206 whole entry): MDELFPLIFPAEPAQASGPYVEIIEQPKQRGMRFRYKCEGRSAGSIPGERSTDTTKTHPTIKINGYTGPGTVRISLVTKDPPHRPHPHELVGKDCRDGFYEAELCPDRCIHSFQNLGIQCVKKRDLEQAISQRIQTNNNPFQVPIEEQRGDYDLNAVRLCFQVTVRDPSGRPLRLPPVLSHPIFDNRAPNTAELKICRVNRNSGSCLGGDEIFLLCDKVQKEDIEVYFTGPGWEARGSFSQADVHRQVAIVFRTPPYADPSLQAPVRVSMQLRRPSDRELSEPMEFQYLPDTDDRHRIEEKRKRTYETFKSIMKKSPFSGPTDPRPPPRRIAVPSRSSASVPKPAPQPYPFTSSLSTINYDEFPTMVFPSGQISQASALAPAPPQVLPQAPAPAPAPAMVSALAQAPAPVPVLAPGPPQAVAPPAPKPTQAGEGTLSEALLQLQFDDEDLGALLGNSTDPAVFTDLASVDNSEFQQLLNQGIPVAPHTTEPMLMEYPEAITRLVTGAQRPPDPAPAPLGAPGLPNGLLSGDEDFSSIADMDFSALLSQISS

Binder | IL-8 promoter driven firefly luciferase (FFluc), dual luciferase assay, Ovcar4 cells | decrease in IL-8 promoter driven firefly luciferase (FFluc), dual luciferase assay, Ovcar4 cells
B1 | ~2 fold | –
B2 | – | ~50%
B3 | – | ~50%
B4 | – | ~50%
